The conditions of this series: Bos taurus; pH 4.2; Thermal; CD; Sodium acetate 0.01 M; NaCl 0.1 M; reversible: yes; whole UniProt chain shown.

B1: Ribonuclease pancreatic wild type, P61823 (protein)
chain: MALKSLVLLSLLVLVLLLVRVQPSLGKETAAAKFERQHMDSSTSAASSSNYCNQMMKSRNLTKDRCKPVNTFVHESLADVQAVCSQKNVACKNGQTNCYQSYSTMSITDCRETGSSKYPNCAYKTTQANKHIIVACEGNPYVPVHFDASV
Regarding B1, the melting temperature (Tm) (commonly the temperature at the midpoint of the melting transition) is 56 °C.
